# From patent publication US20200332005A1 (I MAB, published 2020)
# Like-named read-outs stand apart in the source and are kept apart here.
# T1: recombinant human CD73 protein (human, UniProt P21589 27-547)
# T1 sequence: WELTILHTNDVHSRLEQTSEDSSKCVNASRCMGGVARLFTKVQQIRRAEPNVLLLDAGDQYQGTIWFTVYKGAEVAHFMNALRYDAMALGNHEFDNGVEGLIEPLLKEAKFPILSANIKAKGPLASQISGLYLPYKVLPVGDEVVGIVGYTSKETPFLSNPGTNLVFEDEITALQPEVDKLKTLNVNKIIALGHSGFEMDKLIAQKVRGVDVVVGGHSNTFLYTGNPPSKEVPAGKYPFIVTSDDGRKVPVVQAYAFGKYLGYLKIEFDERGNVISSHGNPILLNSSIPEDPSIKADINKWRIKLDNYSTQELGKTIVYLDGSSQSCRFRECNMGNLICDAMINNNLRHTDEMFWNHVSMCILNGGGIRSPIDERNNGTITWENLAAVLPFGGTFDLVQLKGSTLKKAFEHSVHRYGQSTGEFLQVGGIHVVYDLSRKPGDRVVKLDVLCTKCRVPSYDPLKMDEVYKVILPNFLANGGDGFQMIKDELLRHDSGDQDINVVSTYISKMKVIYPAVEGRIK
# T2: human CD73 on the cell surface (human, UniProt P21589 27-549)
# T2 construct: also called cell surface CD73; CD73 on SK-OV-3 cells
# T2 sequence: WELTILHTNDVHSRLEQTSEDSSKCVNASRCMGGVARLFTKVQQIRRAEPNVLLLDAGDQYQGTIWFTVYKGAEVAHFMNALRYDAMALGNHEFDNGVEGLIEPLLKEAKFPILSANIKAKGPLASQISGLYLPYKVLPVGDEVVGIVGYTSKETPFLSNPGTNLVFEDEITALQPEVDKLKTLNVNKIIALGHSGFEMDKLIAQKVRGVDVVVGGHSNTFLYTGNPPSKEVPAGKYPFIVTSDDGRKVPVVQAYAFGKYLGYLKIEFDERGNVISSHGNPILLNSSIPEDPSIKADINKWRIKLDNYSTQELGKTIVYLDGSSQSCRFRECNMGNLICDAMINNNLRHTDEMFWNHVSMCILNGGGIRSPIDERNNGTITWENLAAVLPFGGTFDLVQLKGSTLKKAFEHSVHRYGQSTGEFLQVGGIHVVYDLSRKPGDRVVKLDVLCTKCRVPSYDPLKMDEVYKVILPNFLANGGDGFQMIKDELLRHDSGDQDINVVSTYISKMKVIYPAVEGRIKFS
# B1: Hu101-28 (antibody, V domains shown)
# VH: EVQLQESGPGLVKPSETLSLTCAVSGYSITSGYYWNWIRQPPGKKLEWMGYINYGGSNGYNPSLKSRITISRDTSKNQFSLKLSSVTAADTAVYYCARDYDAYYEALDDWGQGTTVTVSS
# VL: EIVLSQSPATLSLSPGERATLSCRASSRVNYMHWYQQKPGQSPRPWISATSNLASGVPARFSGSGSGTSYTLTISSLEPEDFAVYYCQQWSSNPPTFGGGTKVEIK
# notes: also called humanized anti-CD73 antibody Hu101-28
# Assays:
# [1] = molecular target: T1, recombinant human CD73 protein; assay: cell-based or functional assay
# [2] = molecular target: T1, recombinant human CD73 protein; assay: cell-based or functional assay; remark: listed apart in the source
# cyno CD73 [3] = molecular target: cyno CD73 (cyno); assay: cell-based or functional assay
# C-terminal of CD73 = assay: plate binding assay, axis Binding activity (OD450) against Ab (µg/ml); panel Binding to C-terminal of CD73
# Sequence of C-terminal of CD73 (P21589 whole entry): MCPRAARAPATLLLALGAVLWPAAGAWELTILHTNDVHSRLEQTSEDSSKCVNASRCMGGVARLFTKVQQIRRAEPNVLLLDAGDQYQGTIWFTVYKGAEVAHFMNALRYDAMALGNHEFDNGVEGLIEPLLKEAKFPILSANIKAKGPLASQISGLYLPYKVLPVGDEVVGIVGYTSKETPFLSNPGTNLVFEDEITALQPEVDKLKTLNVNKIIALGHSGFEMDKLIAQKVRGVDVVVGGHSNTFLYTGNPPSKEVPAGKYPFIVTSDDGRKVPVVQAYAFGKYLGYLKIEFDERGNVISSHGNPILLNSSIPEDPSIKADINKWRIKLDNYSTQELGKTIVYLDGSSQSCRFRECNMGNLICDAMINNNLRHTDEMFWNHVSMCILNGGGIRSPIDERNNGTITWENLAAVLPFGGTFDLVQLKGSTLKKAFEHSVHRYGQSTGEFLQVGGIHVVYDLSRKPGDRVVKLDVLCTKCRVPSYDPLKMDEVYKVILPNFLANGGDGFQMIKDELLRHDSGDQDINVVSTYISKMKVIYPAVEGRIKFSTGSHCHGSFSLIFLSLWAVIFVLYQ
# [4] = molecular target: T1, recombinant human CD73 protein; assay: plate binding assay read as OD 450 against Log (nM) of antibody; text: in vitro biochemical assay
# cyno CD73 [5] = molecular target: cyno CD73 (cyno); assay: as above
# [6] = molecular target: T2, human CD73 on the cell surface; assay: flow cytometry on SK-OV-3 cells
# Protocol: Binding was measured using an FACSCanto (Becton-Dickinson), and the results are presented in FIG. 8 (see also the table below).
# [7] = molecular target: T1, recombinant human CD73 protein; assay: ELISA, recombinant human CD73 at 2 ug/ml
# [8] = molecular target: T2, human CD73 on the cell surface; assay: flow cytometry on SK-OV-3 cells; remark: listed apart in the source
# Excerpt: In the right panel, human ovarian carcinoma cell line (SK-OV-3) was stained with different concentrations of Hu101-28 and analyzed for surface binding by flow cytometry.
# [9] = molecular target: T2, human CD73 on the cell surface; assay: cell-based or functional assay
# [10] = molecular target: T1, recombinant human CD73 protein; assay: SPR, Biacore T200, antibody captured by anti-human Fc IgG, antigen as analyte, 1:1 model, 25 C
# Protocol: For the binding assay, the Biacore T200 system was used through human antibody capture approach. The anti-human Fc lgG were immobilized on CMS sensor chip according to the manufactory's instruction. The test antibody was injected and captured by the immobilized anti-human Fc lgG. And then serial concentrations of antigen was individually injected, and the binding profile was recorded for each concentration antigen analyte, respectively. The assay system was regenerated by injection of 10 mM Glycine-HCl pH 1.5 for 30 seconds. The running buffer was HBS-EP+(10 mM HEPES, pH 7.4, 150 mM NaCl, 3 mM EDTA and 0.05% P20). The assay temperature was 25° C., and the association and dissociation time were 180 and 600 seconds, respectively.
# [11] = molecular target: T2, human CD73 on the cell surface; assay: cell-based or functional assay; remark: listed apart in the source
# [12] = molecular target: T1, recombinant human CD73 protein; assay: cell-based or functional assay; remark: listed apart in the source
binder,measurement,setting,value
B1,"IC50 (nM), inhibition of recombinant CD73 enzymatic activity",[1],9.35 nM
same,"IC50, inhibition of CD73 enzyme activity (% of residual enzyme activity)",[2],1.78 nM
same,"IC50, inhibition of CD73 enzyme activity (% of residual enzyme activity)",cyno CD73 [3],2.22 nM
same,EC50 (read off the curve),C-terminal of CD73,~0.02 µg/mL
same,EC50,[4],0.09 nM
same,EC50,cyno CD73 [5],0.44 nM
same,EC50,[6],1.35 nM
same,EC50,[7],0.0887 nM
same,EC50,[8],0.67 nM
same,"IC50 (nM), inhibition of CD73 enzymatic activity on SK-OV-3 cells",[9],2.52 nM
same,Kd,[10],0.59 nM
same,koff,[10],3.47e-05 s⁻¹
same,kon,[10],58900 M⁻¹ s⁻¹
same,"IC50, inhibition of CD73 activity on MDA-MB-231 cells (CellTiter-Glo)",[11],8.21 nM
same,"IC50, inhibition of CD73 activity on SK-OV-3 cells (CellTiter-Glo)",[11],2.52 nM
same,"IC50, inhibition of recombinant human CD73 activity (CellTiter-Glo)",[12],2.84 nM
